Changes are numbered by the printed parent chain. Blank lines part the entries; values can stand above or below the binder they belong to.
How the values were obtained:
[1] = target: T1, Cdc48 (recombinant, hexameric) (Saccharomyces cerevisiae, UniProt P25694 1-835); assay: pull-down; GST-yNpl4 (0.5 μM, wild type or mutant) on Glutathione Sepharose 4B beads, 1 h at room temperature with 0.5 μM yUfd1, 3 μM Cdc48 (0.5 μM hexamer) and 1 μg K48 chains in 100 μL 50 mM Tris-HCl pH 7.5, 100 mM NaCl, 10% glycerol, 0.1% Triton X-100; chains detected by anti-Ub immunoblot, proteins by Ponceau S; settings: both partners purified
T1 construct: Cdc48 AAA-family ATPase of Saccharomyces cerevisiae; source: E. coli Rosetta (DE3) (pET21a), purified (TALON resin, Superose 6)

M1-Ub4 = target: T2, M1-Ub4 (UniProt P0CG48 1-76; P0CG48 1-76; P0CG48 1-76; P0CG48 1-76); assay: SPR; Biacore T200, 25 °C; wild-type or mutant His6-yNpl4^113–580, yUfd1–His6-yNpl4^113–580 or His6-hNpl4 immobilized on a CM5 chip by amine coupling; Ub2 or Ub4 in two-fold dilution series injected 60 s at 10 μL per min in 10 mM HEPES-NaOH pH 7.5, 150 mM NaCl, 0.05% Tween-20, 0.5 g/L BSA; equilibrium Kd; settings: both partners purified
T2 construct: ubiquitin (Ub), first unit; ubiquitin (Ub), second unit; ubiquitin (Ub), third unit; ubiquitin (Ub), fourth unit
T2 sequence (P0CG48 1-304, one chain of several): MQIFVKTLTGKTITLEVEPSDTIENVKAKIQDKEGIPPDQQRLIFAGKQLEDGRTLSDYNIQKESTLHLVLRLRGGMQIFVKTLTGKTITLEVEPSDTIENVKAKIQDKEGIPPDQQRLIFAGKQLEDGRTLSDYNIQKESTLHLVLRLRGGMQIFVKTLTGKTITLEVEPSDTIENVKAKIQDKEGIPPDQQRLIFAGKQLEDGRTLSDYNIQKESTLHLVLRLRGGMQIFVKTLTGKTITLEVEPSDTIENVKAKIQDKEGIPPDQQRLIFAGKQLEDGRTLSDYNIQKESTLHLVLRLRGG

T1 sequence (P25694 whole entry): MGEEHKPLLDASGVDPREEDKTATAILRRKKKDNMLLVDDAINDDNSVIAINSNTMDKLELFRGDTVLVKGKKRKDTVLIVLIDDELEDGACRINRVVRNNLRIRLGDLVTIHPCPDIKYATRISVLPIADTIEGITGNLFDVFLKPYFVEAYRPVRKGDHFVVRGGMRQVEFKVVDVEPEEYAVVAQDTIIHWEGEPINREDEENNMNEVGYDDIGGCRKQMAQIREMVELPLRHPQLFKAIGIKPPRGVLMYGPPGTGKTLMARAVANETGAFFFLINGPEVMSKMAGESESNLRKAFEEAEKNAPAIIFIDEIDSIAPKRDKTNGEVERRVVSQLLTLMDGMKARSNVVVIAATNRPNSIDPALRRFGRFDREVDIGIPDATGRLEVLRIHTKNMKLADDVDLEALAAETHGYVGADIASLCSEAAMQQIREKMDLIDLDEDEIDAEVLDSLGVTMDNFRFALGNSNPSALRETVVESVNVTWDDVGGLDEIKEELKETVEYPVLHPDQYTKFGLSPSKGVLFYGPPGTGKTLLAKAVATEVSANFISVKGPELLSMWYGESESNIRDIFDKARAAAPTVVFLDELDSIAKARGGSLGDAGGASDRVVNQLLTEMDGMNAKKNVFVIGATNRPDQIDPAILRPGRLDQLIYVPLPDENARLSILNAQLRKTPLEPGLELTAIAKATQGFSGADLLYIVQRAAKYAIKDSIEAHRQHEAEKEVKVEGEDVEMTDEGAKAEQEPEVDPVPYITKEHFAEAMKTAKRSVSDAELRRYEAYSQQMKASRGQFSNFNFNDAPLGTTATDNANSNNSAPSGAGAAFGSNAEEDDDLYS

- binding result [1]: binds
B1: GST-yNpl4 T571A (natural protein, Saccharomyces cerevisiae, UniProt P33755 1-580, looked up)
chain: MLIRFRSKNGTHRVSCQENDLFGTVIEKLVGNLDPNADVDTFTVCEKPGQGIHAVSELADRTVMDLGLKHGDMLILNYSDKPANEKDGVNVEIGSVGIDSKGIRQHRYGPLRIKELAVDEELEKEDGLIPRQKSKLCKHGDRGMCEYCSPLPPWDKEYHEKNKIKHISFHSYLKKLNENANKKENGSSYISPLSEPDFRINKRCHNGHEPWPRGICSKCQPSAITLQQQEFRMVDHVEFQKSEIINEFIQAWRYTGMQRFGYMYGSYSKYDNTPLGIKAVVEAIYEPPQHDEQDGLTMDVEQVKNEMLQIDRQAQEMGLSRIGLIFTDLSDAGAGDGSVFCKRHKDSFFLSSLEVIMAARHQTRHPNVSKYSEQGFFSSKFVTCVISGNLEGEIDISSYQVSTEAEALVTADMISGSTFPSMAYINDTTDERYVPEIFYMKSNEYGITVKENAKPAFPVDYLLVTLTHGFPNTDTETNSKFVSSTGFPWSNRQAMGQSQDYQELKKYLFNVASSGDFNLLHEKISNFHLLLYINSLQILSPDEWKLLIESAVKNEWEESLLKLVSSAGWQALVMILQESG
notes: Npl4 of Saccharomyces cerevisiae (yNpl4), full length; source: E. coli Rosetta (DE3) (pGEX-6P1), purified (Glutathione Sepharose FF, Resource Q); not shown: GST, N-terminal, kept

- binding result [1]: binds
B2: GST-yNpl4 M574Q (natural protein, Saccharomyces cerevisiae, UniProt P33755 1-580, looked up)
chain: B1 chain with A571T, M574Q
notes: as for B1

- binding result [1]: binds
B3: GST-yNpl4 A494F (natural protein, Saccharomyces cerevisiae, UniProt P33755 1-580, looked up)
chain: B1 chain with A494F, A571T
notes: as for B1

- binding result [1]: binds
B4: GST-yNpl4 M574A (natural protein, Saccharomyces cerevisiae, UniProt P33755 1-580, looked up)
chain: B1 chain with A571T, M574A
notes: as for B1

- binding result [1]: binds
B5: GST-yNpl4 S498R (natural protein, Saccharomyces cerevisiae, UniProt P33755 1-580, looked up)
chain: B1 chain with S498R, A571T
notes: as for B1

- binding result [1]: binds
B6: GST-yNpl4 I575A (natural protein, Saccharomyces cerevisiae, UniProt P33755 1-580, looked up)
chain: B1 chain with A571T, I575A
notes: as for B1

- Kd (M1-Ub4): 923 µM
B7: His6-yNpl4^113–580 T571A (domain or fragment, Saccharomyces cerevisiae, UniProt P33755 113-580, looked up)
chain: IKELAVDEELEKEDGLIPRQKSKLCKHGDRGMCEYCSPLPPWDKEYHEKNKIKHISFHSYLKKLNENANKKENGSSYISPLSEPDFRINKRCHNGHEPWPRGICSKCQPSAITLQQQEFRMVDHVEFQKSEIINEFIQAWRYTGMQRFGYMYGSYSKYDNTPLGIKAVVEAIYEPPQHDEQDGLTMDVEQVKNEMLQIDRQAQEMGLSRIGLIFTDLSDAGAGDGSVFCKRHKDSFFLSSLEVIMAARHQTRHPNVSKYSEQGFFSSKFVTCVISGNLEGEIDISSYQVSTEAEALVTADMISGSTFPSMAYINDTTDERYVPEIFYMKSNEYGITVKENAKPAFPVDYLLVTLTHGFPNTDTETNSKFVSSTGFPWSNRQAMGQSQDYQELKKYLFNVASSGDFNLLHEKISNFHLLLYINSLQILSPDEWKLLIESAVKNEWEESLLKLVSSAGWQALVMILQESG
notes: source: E. coli Rosetta (DE3), purified (Ni-NTA, Resource Q); not shown: His6, N-terminal, kept

- Kd (M1-Ub4): 84 µM
B8: His6-yNpl4^113–580 A494F (domain or fragment, Saccharomyces cerevisiae, UniProt P33755 113-580, looked up)
chain: B7 chain with A382F, A459T
notes: as for B7

- Kd (M1-Ub4): 101 µM
B9: His6-yNpl4^113–580 S498L (domain or fragment, Saccharomyces cerevisiae, UniProt P33755 113-580, looked up)
chain: B7 chain with S386L, A459T
notes: as for B7

- Kd (M1-Ub4): 634 µM
B10: His6-yNpl4^113–580 M574Q (domain or fragment, Saccharomyces cerevisiae, UniProt P33755 113-580, looked up)
chain: B7 chain with A459T, M462Q
notes: as for B7

- Kd (M1-Ub4): 151 µM
B11: yUfd1–His6-yNpl4^113–580 complex (complex, Saccharomyces cerevisiae)
chain 1: MFSGFSSFGGGNGFVNMPQTFEEFFRCYPIAMMNDRIRKDDANFGGKIFLPPSALSKLSMLNIRYPMLFKLTANETGRVTHGGVLEFIAEEGRVYLPQWMMETLGIQPGSLLQISSTDVPLGQFVKLEPQSVDFLDISDPKAVLENVLRNFSTLTVDDVIEISYNGKTFKIKILEVKPESSSKSICVIETDLVTDFAPPVGYVEPDYKALKAQQDKEKKNSFGKGQVLDPSVLGQGSMSTRIDYAGIANSSRNKLSKFVGQGQNISGKAPKAEPKQDIKDMKITFDGEPAKLDLPEGQLFFGFPMVLPKEDEESAAGSKSSEQNFQGQGISLRKSNKRKTKSDHDSSKSKAPKSPEVIEID
chain 2: B7 chain with A459T
notes: Ufd1 of Saccharomyces cerevisiae (yUfd1), full-length gene in pGEX-6P1; also called yUfd1–yNpl4; not shown: GST, N-terminal, cleaved; His6, N-terminal, kept

- Kd (M1-Ub4): 136 µM
B12: His6-yNpl4^113–580 S498R (domain or fragment, Saccharomyces cerevisiae, UniProt P33755 113-580, looked up)
chain: B7 chain with S386R, A459T
notes: as for B7

From article PMC6910952 (Nature Communications, 2019)
